B1: MNAT1 (parent)
chain: SLREYNDFLEEVEEIVFNLTNNVD

Variants of: B1
Test: protein stability index of a GFP-peptide fusion (GPS, HEK-293T) (PSI 1-6); higher = more stable
Settings: c terminus: a fixed tail appended
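Note: lentivirally expressed fusions sorted by FACS into six bins by GFP to DsRed ratio, PSI derived from sequencing read proportions per bin multiplied by bin number.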

Variant	protein stability index
SLREENDFLEEVEEIVFNLTNNVD [Y5E]	4.35
SLREANDFLEEVEEIVFNLTNNVD [Y5A]	3.78
SLREYNDFAEEVEEIVFNLTNNVD [L9A]	4.09
SLREYNDFIEEVEEIVFNLTNNVD [L9I]	2.26
SLREYNDFLLEVEEIVFNLTNNVD [E10L]	1.52
SLREYNDFLCEVEEIVFNLTNNVD [E10C]	2.74
SLREYNDFLQEVEEIVFNLTNNVD [E10Q]	2.62
SLREYNDFLPEVEEIVFNLTNNVD [E10P]	3.54
SLREYNDFLEEVEEIVFNVTNNVD [L19V]	2.97
SLREYNDFLEEVEEIVFNQTNNVD [L19Q]	4.07
SLREYNDFLEEVEEIVFNFTNNVD [L19F]	2.24
SLREYNDFLEEVEEIVFNCTNNVD [L19C]	3.34
SLREYNDFLEEVEEIVFNITNNVD [L19I]	1.84
SLREYNDFLEEVMEIVFNLTNNVD [E13M]	2.94
SLREYNDFLEEVEEIVFNLTNNVR [D24R]	1.26
SLREYNDFLEEVEEIVFNLTNNVQ [D24Q]	1.73
SLREYNDFLEEVEEIVFNLTNNVS [D24S]	2.07
SLREYNDFLEEVEEIVFNLTNNVV [D24V]	1.65
SLREYNDFLEEVEEIVFNLTNNVT [D24T]	1.82
SLREYNDFLEEVEEIVFNLTNNVL [D24L]	1.82
SLREYNDFLEEVEEIVFPLTNNVD [N18P]	2.71
SLREYNDFLEEVEEIVFKLTNNVD [N18K]	2.01
SLREYNDFLEEVEEIVFCLTNNVD [N18C]	1.71
SLREYNDFLEEVEEIVFHLTNNVD [N18H]	1.85

Variant	protein stability index
SLREYNDFLEEVEAIVFNLTNNVD [E14A]	1.82
SLREYNDFLEEVEKIVFNLTNNVD [E14K]	1.87
SLREYNMFLEEVEEIVFNLTNNVD [D7M]	2.27
SLREYNWFLEEVEEIVFNLTNNVD [D7W]	1.96
SLREYNLFLEEVEEIVFNLTNNVD [D7L]	1.94
SLREYNVFLEEVEEIVFNLTNNVD [D7V]	2.16
SLREYNYFLEEVEEIVFNLTNNVD [D7Y]	1.79
SDREYNDFLEEVEEIVFNLTNNVD [L2D]	3.33
SWREYNDFLEEVEEIVFNLTNNVD [L2W]	1.79
SKREYNDFLEEVEEIVFNLTNNVD [L2K]	2.6
SGREYNDFLEEVEEIVFNLTNNVD [L2G]	3.08
SFREYNDFLEEVEEIVFNLTNNVD [L2F]	1.96
SLREYNDFLEEVEEIVFNLINNVD [T20I]	1.41
SLREYNDFLEEVEEIVFNLMNNVD [T20M]	1.86
SLREYNDFLEEVEEIVFNLANNVD [T20A]	1.07
SLREYNDRLEEVEEIVFNLTNNVD [F8R]	4.61
SLREYNDSLEEVEEIVFNLTNNVD [F8S]	4.91
SLREYNDELEEVEEIVFNLTNNVD [F8E]	5.2
SLREYNDKLEEVEEIVFNLTNNVD [F8K]	4.28
SLREYNDCLEEVEEIVFNLTNNVD [F8C]	3.8
SLREYNDFLEESEEIVFNLTNNVD [V12S]	4.5
SLREYNDFLEEREEIVFNLTNNVD [V12R]	4.19
SLREYNDFLEETEEIVFNLTNNVD [V12T]	3.48
SLREYNDFLEELEEIVFNLTNNVD [V12L]	1.09

Variant	protein stability index
SLREYNDFLEENEEIVFNLTNNVD [V12N]	4.83
SLREYNDFLEEVEEIIFNLTNNVD [V16I]	2.46
SLREYNDFLEEVEEIMFNLTNNVD [V16M]	2.51
SLREYNDFLEEVEEITFNLTNNVD [V16T]	3.21
SLREYNDFLEEVEEICFNLTNNVD [V16C]	3
SLREYWDFLEEVEEIVFNLTNNVD [N6W]	2.38
SLREYQDFLEEVEEIVFNLTNNVD [N6Q]	1.75
SLREYEDFLEEVEEIVFNLTNNVD [N6E]	1.76
SLREYDDFLEEVEEIVFNLTNNVD [N6D]	2.4
SLREYSDFLEEVEEIVFNLTNNVD [N6S]	3.31
SLREYNDFLEEVEEIVDNLTNNVD [F17D]	3.2
SLREYNDFLEEVEEIVNNLTNNVD [F17N]	2.16
SLREYNDFLEEVEEIVWNLTNNVD [F17W]	1.95
SLREYNDFLEEVEEIVRNLTNNVD [F17R]	2.2
SLREYNDFLEEVEEIVFNLTNCVD [N22C]	1.66
SLREYNDFLEEVEEIVFNLTNTVD [N22T]	2.06
SLREYNDFLEEVEEIVFNLTNFVD [N22F]	2.47
SLREYNDFLEEVEEIVFNLTNYVD [N22Y]	1.38
SLREYNDFLEEVEEIVFNLTINVD [N21I]	1.73
SLREYNDFLEEVEEIVFNLTENVD [N21E]	2.51
SLREYNDFLEEVEEIVFNLTPNVD [N21P]	2.19
SLREYNDFLEEVEEIVFNLTHNVD [N21H]	1.76
SLREYNDFLEEVEEIVFNLTNNMD [V23M]	1.44
SLREYNDFLEEVEEIVFNLTNNND [V23N]	2.35

Variant	protein stability index
SLREYNDFLEEVEEIVFNLTNNRD [V23R]	2.18
SLREYNDFLEEVEEIVFNLTNNWD [V23W]	1.57
MLREYNDFLEEVEEIVFNLTNNVD [S1M]	1.82
ELREYNDFLEEVEEIVFNLTNNVD [S1E]	2.03
PLREYNDFLEEVEEIVFNLTNNVD [S1P]	3.1
SLCEYNDFLEEVEEIVFNLTNNVD [R3C]	1.77
SLEEYNDFLEEVEEIVFNLTNNVD [R3E]	2.12
SLREYNDFLEEVEENVFNLTNNVD [I15N]	4.25
SLREYNDFLEEVEEYVFNLTNNVD [I15Y]	3.35
SLREYNDFLEEVEETVFNLTNNVD [I15T]	3.77
SLREYNDFLEEVEEFVFNLTNNVD [I15F]	2.23
SLRGYNDFLEEVEEIVFNLTNNVD [E4G]	2.39
SLRVYNDFLEEVEEIVFNLTNNVD [E4V]	2.08
SLRCYNDFLEEVEEIVFNLTNNVD [E4C]	1.95
SLRTYNDFLEEVEEIVFNLTNNVD [E4T]	1.72
SLRWYNDFLEEVEEIVFNLTNNVD [E4W]	1.8
SLRAYNDFLEEVEEIVFNLTNNVD [E4A]	1.88
SLRRYNDFLEEVEEIVFNLTNNVD [E4R]	1.85
SLREYNDFLEGVEEIVFNLTNNVD [E11G]	2.13
SLREYNDFLEMVEEIVFNLTNNVD [E11M]	1.87
SLREYNDFLEAVEEIVFNLTNNVD [E11A]	1.86
SLREYNDFLENVEEIVFNLTNNVD [E11N]	1.68
